Source: patent EP4660202A1

Tests used:
huTregL1-his (human) [1] = molecular target: T1, huTregL1-his (human) (UniProt Q96JA1); experiment: cross-linking MS (DSBU), sequence L88-K92 of huTregL1-his, chymotrypsin or trypsin
T1 sequence: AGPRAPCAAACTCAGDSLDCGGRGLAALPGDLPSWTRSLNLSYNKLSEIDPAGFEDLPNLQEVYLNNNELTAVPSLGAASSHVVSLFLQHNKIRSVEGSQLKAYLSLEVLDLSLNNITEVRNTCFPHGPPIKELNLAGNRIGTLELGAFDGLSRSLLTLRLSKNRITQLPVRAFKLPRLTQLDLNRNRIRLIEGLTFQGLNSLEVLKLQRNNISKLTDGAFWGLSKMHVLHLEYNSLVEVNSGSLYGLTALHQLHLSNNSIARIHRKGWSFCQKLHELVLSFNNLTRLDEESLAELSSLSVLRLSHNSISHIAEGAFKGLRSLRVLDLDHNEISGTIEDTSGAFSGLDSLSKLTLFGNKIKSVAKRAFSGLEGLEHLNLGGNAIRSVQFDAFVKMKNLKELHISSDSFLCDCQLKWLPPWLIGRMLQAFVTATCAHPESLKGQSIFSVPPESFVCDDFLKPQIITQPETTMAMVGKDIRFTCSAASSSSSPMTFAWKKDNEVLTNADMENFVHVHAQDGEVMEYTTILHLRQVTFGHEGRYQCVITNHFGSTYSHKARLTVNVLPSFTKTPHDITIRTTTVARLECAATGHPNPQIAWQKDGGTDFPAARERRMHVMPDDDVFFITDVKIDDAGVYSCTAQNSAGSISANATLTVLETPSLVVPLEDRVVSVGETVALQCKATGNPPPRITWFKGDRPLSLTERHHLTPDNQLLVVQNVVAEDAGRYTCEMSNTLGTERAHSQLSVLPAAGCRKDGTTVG

huTregL1-his (human) [2] = molecular target: T1, huTregL1-his (human); experiment: covalent labelling MS (DEPC), sequence E62-L101 of huTregL1-his, antigen alone against antigen+antibody
huTregL1-his (human) [3] = molecular target: T1, huTregL1-his (human); experiment: covalent labelling MS (DEPC), sequence Q542-Y553 of huTregL1-his, chymotrypsin-treated group, antigen alone against antigen+antibody
huTregL1-his (human) [4] = molecular target: T1, huTregL1-his (human); experiment: cross-linking MS (DSBU), sequence N211-W222 of huTregL1-his, chymotrypsin or trypsin
huTregL1-his (human) [5] = molecular target: T1, huTregL1-his (human); experiment: cross-linking MS (DSBU), sequence S90-L101 of huTregL1-his, chymotrypsin or trypsin
huTregL1-his (human) [6] = molecular target: T1, huTregL1-his (human); experiment: cross-linking MS (DSBU), sequence S362-K365 of huTregL1-his, trypsin-treated group
huTregL1-his (human) [7] = molecular target: T1, huTregL1-his (human); experiment: covalent labelling MS (DEPC), sequence D111-L134 of huTregL1-his, chymotrypsin-treated group, antigen alone against antigen+antibody

B1: GTC210-03 clone (antibody, mouse IgG2a, V domains shown)
VH: EVQLLESGGGLVQPGGSLRLSCAASGFTFSSYDMSWVRQAPGKGLEWVSGISPDGSNIYYADSVKGRFTISRDNSKNTLYLQMNSLRAEDTAVYYCAKVGLRCRYEACSYAYGMDVWGQGTLVTVSS
VL: QSVLTQPPSASGTPGQRVTISCSGSSSNIGSNYVSWYQQLPGTAPKLLIYSDSHRPSGVPDRFSGSKSGTSASLAISGLRSEDEADYYCATWDSSLNGYVFGGGTKLTVLR
T% (peptides of the same sequence detected in the test sample compared to the control) (huTregL1-his (human) [1]): < 2%
labeling decrease (%) (huTregL1-his (human) [2]): 13.2%
labeling decrease (%) (huTregL1-his (human) [3]): 14.7%
T% (peptides of the same sequence detected in the test sample compared to the control) (huTregL1-his (human) [4]): < 2%
T% (peptides of the same sequence detected in the test sample compared to the control) (huTregL1-his (human) [5]): < 2%
T% (peptides of the same sequence detected in the test sample compared to the control) (huTregL1-his (human) [6]): 0%
labeling decrease (%) (huTregL1-his (human) [7]): 15.3%
